Results as given in US20200147199A1 (published 2020).

B1: Z035 (BRA112_71) (antibody, V domains shown)
VH: EVQLLESGGGLIQPGGSLRLSCAASGFTFSSYAMSWVRQAPGKGLEWVSGISGSGGASDNGASRYYADSVKGRFSISRDNSKNTVYLQMNSLRAEDTAVYYCAKDRLSGGFGELFQKWGQGTLVTVSS
VL: DIQMTQSPSTLAASVGDRVTITCRASQNINSWLAWYQQKPGKAPKFLIYKASTLESGAPSRFSGSGSGTEFTLTISSLQPDDFATYYCQHYYSYPYTFGQGTKVEIK
B2: Z018 (antibody, V domains shown)
VH: QVQLVQSGPGVKKPGASVKVSCKASGYIFSDYYILWVRQAPGQGLEYMGWMNPISGFTHYAQNFQGRVTMTRDTSISTAYMELTRLASDDTAVYYCARGGRINSPLGFDPWGQGTLVTVSS
VL: EIVLTQSPATLSLSPGERATLSCRASQSISTFSLAWYQQKFGQAPRLLIYGASSRATGIPDRFSGSGSGTDFTLTISRLEPEDFAVYYCQQYVSSPLTFGGGTKVEIK
B3: Z041 (antibody, V domains shown)
VH: QVQLVQSGAEVKKPGSSVRLSCKASGGSYSTYAISWVRQAPGQGLEWMGRIIPSLGKTHLAQKFQGRVTFTADESTTTVYMILSSLKSEDTALYYCATPDWQYSSAYSLDHWGQGTLVTVSS
VL: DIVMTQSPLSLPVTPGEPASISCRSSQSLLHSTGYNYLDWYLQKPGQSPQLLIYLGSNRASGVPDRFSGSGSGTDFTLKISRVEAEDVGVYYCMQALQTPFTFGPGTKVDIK
B4: Z038 (BRA12_2) (antibody, V domains shown)
VH: EVQLLESGGGLVQPGGSLRLSCEASGFTFSNYAMNWVRQAPGKGLEWVSTLGATDNSGDSTYYVESAKGRFTISRDNSKNTLYLQMNSLRVEDTAVYFCAKDRTGNIGAGTGYFDKWGQGTLVTVSS
VL: DIQMTQSPSTLSASVGDRVTITCRASHRISGWLAWYQQKPGKAPKLLIYQASGLESGVPSRFSGSGYGTEFTLTISSLQADDFATYYCQQYNNYPWTFGQGTKVEIK
B5: Z006 (MEX105_42) (antibody, V domains shown)
VH: EVQLLESGGGLVQPGGSLRLSCAASGFTFKNYAMAWVRQAPGKGLEWVSLLYNSEESTYYADSVKGRFTISRDNSKNTLFLQMNRLRVEDTAVYFCVRDRSNGWSSINLWGRGTLVTVSS
VL: DIQMTQSPSTLSASVGDRVTMTCRASQTISGWLAWYQQKPGKAPKLLIYQASRLESGIPSRFSGSGSGTEFTLTISSLQPDDVATYYCQQYSTFWTFGLGTKVEIK
B6: Z010 (MEX105_88) (antibody, V domains shown)
VH: EVQLLESGGGLVQPGGSLRLSCAASGFTFSNYAMAWVRQAPGKGLEWVSLIYSGDDSTYYADFVKGRFTISRHNSKNTLSLQMNSLRAEDTAIYYCVKDRGTGWSSIVHWGQGTLVTVSS
VL: DIQMTQSPSTLSASVGDRVTITCRASQTISNWLAWYQQKPGKAPKLLIYQASSLESGVPSRFSGSGSGTEFTLTISSLQPDDFATYYCQQYSTYWTFGQGTKVEIK
B7: Z031 (BRA112_46) (antibody, V domains shown)
VH: EVQLLESGGGLVQPGGSLRLSCVASGFTFGSYGMAWVRQAPGKGLEWISSISSIDPSTYYADSVKGRFTVSRDNSENTLYLHMSSLKVEDTAVYFCAKDRLNGGFGELFASWGQGTLVTVSS
VL: DIQMTQSPSTLSASVGDSVTITCRASQSISSWLAWYQQKPGKAPKFLIHKASSLESGIPSRFSGSGSGTEFTLTINNLQPDDFATYYCQHYHSYPWTFGQGTKVEIK
B8: Z024 (antibody, V domains shown)
VH: EVQLVQSGAEVRKPGESLRISCKTSGYTFTSHWVAWVRQMPGKGLEWMGIIYPGDSDTRYSPSFQGQISISADKSINTAYLQWSSLKASDTGIYYCARHDGRGYCSPTRCFFSGMDVWGQGTTVTVSS
VL: DIQLTQSPSSLSASVGDRVTITCRASQSISNYLNWYQQKPGKAPNLLIYAASSLQSGVPSRFSGSGSGTDFTLTISSLQPEDYAIYYCQQTDRTPLTFGQGTKVEIK
B9: Z014 (antibody, V domains shown)
VH: EVQLLESGGDLVQPGGSLRLSCAASGFTFSSYGMSWVRQAPGKGLEWVSSISGFDPSTYYADSVRGRFTIARDNSKNTLYLQMKSLRVEDTAIYYCAKDRLVRGFGEVLDSWGQGTLVTVSS
VL: DIQMTQSPSSLSASVGDRVTITCRASQGISNYLAWYQQKPREVPKLLIYAASTLHSGVPSRFSGSGSGTDFTLTISGLQPEDVATYYCQKYNSVPWTFGQGTKVEIK
B10: Z037 (antibody, V domains shown)
VH: QVQLQESGPGLVKPSETLSLTCSVSGYFISSGHYWGWIRQSPGKGLEWIASIYQSGSKFQTGNTYYNPSLESRVTISMDTSKNQFSLKLSSVTAADTAVYFCARDARSRSWDRTGFFGPWGQGILVTVSS
VL: EIVLTQSPGTLSLSPGERATLSCRASQSLSSSFLAWYQQKPGQSPRLLIYGTSSRDTGIPDRFSGSGSGTDFTLTISRLEPEDSAVYYCQQYGSSWGTFGQGTKLEIK
B11: Z043 (antibody, V domains shown)
VH: QVQLVQSGAEVKKPGASVKVSCKTSGYTFTSYYMNWVRQAPGQGLEWMGIIKPSDGSTNYAQKFQGRVTMTRDTSTSTVYMELRSLRSEDTAVYYCGRDSKGWLQLRGDIDYWGQGTLVTVSS
VL: QSALTQPASVSGSPGQSITISCAGTSSDVGNYNLVSWYQQHPGKAPKLLIYEVSKRPSGVSNRFSGSKSGNTASLTISGLQAEDEADYYCCSYAGSSTYVFGTGTEVTVL
B12: Z042 (antibody, V domains shown)
VH: QVQLQESGPGLVKPSETLSLSCTVSSGSISNYYWNWIRQPPGKGLEWIGYIYYSGSISYNPSLKSRVTISVDTSKNQLSLKLNSVTAADTAVYYCARGPDNRYWGQGTLVTVSS
VL: EIVMTQSPATLSVSPGERVTLSCRASQSVSYNLAWHQQKPGQAPRLLIYGASTRATGIPARFSGSGSGTEFTLTISNMQSEDFAVYYCQQYNNWPPVFTFGPGTKVDIK
B13: Z039 (antibody, V domains shown)
VH: EVQLLESGGGLVQPGGSLRLSCAASGYIFDNYAMSWVRQAPGKGLEWVSYINGGGYGTDYADSVKGRFTISRDNSKRILYLQMNSLRVGDTAVYYCAKSPYVGGYGLPGDSWGQGTLVTVSS
VL: EIVLTQSPGTLSLSPGERATLSCRASQTIFFNYLAWYQKKPGQAPRLLVHGASTRATGIPDRFSGSGSGTDFTLTINSLDPEDFAVYYCQQYGDSPPTFGGGTKVEIK
B14: Z021 (MEX84_p4-23) (antibody, V domains shown)
VH: QVQLQESGPGLVKPSETLSLTCTVSGGSIDTYYWSWIRQTPGKGLEWIGCFYYSVDNHFNPSLESRVTISVDTSKNQFSLKMTSMTASDTAVYYCARNQPGGRAFDYWGPGTLVTVSS
VL: EIVLTQSPATLSLSPGQRATLSCRASQSVSNYFAWYQQKPGQAPRLLIYDTSKRATGTPARFSGSGSGTDFTLTISSLEPEDFAVYYCQERNNWPLTWTFGLGTKVEIK
B15: Z004 (MEX18_89) (antibody, V domains shown)
VH: EVQLLESGGGLVQPGGSLRLTCATSGFTFRDYAMSWVRQAPGKGLEWVSSYSGIDDSTYYADSVKGRFTISRDNSKSTLSLHMNSLRAEDSALYFCAKDRGPRGVGELFDSWGQGTLVTVSS
VL: DIQMTQSPSTLSASVGDRVTITCRASQSISKWLAWYQQKPGKAPKLLIYTTSTLKSGVPSRFSGSGSGTEFTLTISSLQPDDFATYYCQHFYSVPWTFGQGTKVEIK
B16: Z028 (MEX84_p4-53) (antibody, V domains shown)
VH: EVQLLESGGGLVQPGGSLRLSCAASGFTFSAYAMSWVRQAPGKGLEWVSSINGHSDSTYFADSVKGRFTISRDNSKNTLYLQMNSLRAEDTALYYCAKDRLREGIGELFHSWGQGTLVTVSS
VL: DIQMTQSPSTLSASIGDRVTITCRASQSITPWLAWYQQKPGKAPKFLIYQTSILESGVPSRFSGSGSGTEFTLTISSLQPDDFATYYCQHYHSYPWTFGQGTKVEIK
B17: Z001 (MEX18_21) (antibody, V domains shown)
VH: EVQLLESGGGLVQPGGSRRLSCATSGFSFDTYAMSWLRQAPGKGLEWVSSFSGLDDSTYYADSVKGRFTISRDNSKNTLYLQMNSLRAEDTAIYYCAKDRGPRGIGELFDFWGQGTLVTVSS
VL: DIQMTQSPSTLSASVGDRVTITCRASQSISRWLAWYQQKPGKAPKLLIYKTSTLKSEVPSRFSGSGSGTEFTLTISSLQPDDFATYYCQHFHSVPWTFGQGTKVEIK
B18: Z012 (antibody, V domains shown)
VH: QVQLVQSGAEVKKSGASVKVSCKASGYSFTTNYIHWVRQAPGQGPEWMGIINPRGGSTTYAQKFQGRVLMTSDTSTSTVYMELSSLRSEDRAVYYCARGKNHQTTVAVLSWYYGMDVWGQGTTVTVSS
VL: DIQMTQSPSSVSASVGDRVTITCRASQGISSWLAWYQQKPGKAPKLLISAASSLQSGVPSRFSGSGSGTDFTLTISNLQPEDFATYFCQQANSFPYTFGQGTKLEIK

Biological target: ZIKV E Domain III (ZEDIII), polyhistidine-AviTag, produced in HEK-293-6E cells
Test: ELISA

Point of comparison: B14, EC50 0.0554 µg/mL. Against it:
- B1 — 2-fold lower, 0.0284 µg/mL
- B2 — within 1.5-fold, 0.0742 µg/mL
- B3 — 3.9-fold higher, 0.218 µg/mL
- B4 — within 1.5-fold, 0.0581 µg/mL
- B5 — 1.6-fold lower, 0.0351 µg/mL
- B6 — higher, > 0.4 µg/mL
- B7 — 1.6-fold lower, 0.0341 µg/mL
- B8 — higher, > 4 µg/mL
- B9 — 1.9-fold higher, 0.106 µg/mL
- B10 — higher, > 0.4 µg/mL
- B11 — 3.4-fold higher, 0.188 µg/mL
- B12 — within 1.5-fold, 0.0586 µg/mL
- B13 — 1.6-fold higher, 0.0885 µg/mL
- B15 — 2.3-fold lower, 0.0237 µg/mL
- B16 — within 1.5-fold, 0.0371 µg/mL
- B17 — 2.7-fold lower, 0.0206 µg/mL
- B18 — 3.6-fold higher, 0.2 µg/mL
